# Measurements taken from patent US20240101665A1.
# Legend:
# [1] = molecular target: human G Protein coupled receptor 48 (GPR48), endogenous, in colorectal cancer cells, tissues and organoids (human) (UniProt Q9BXB1); assay: cell-based or functional assay
# [2] = molecular target: human G Protein coupled receptor 48 (GPR48), endogenous, in colorectal cancer cells, tissues and organoids (human) (UniProt Q9BXB1); assay: western blot on P6C lysate, dilution series of antibody
# [3] = molecular target: human G Protein coupled receptor 48 (GPR48), endogenous, in colorectal cancer cells, tissues and organoids (human) (UniProt Q9BXB1); assay: flow cytometry on P6C cells, dilution series of antibody, FITC goat anti-mouse IgG
substance,measurement,setting,value
"Commercial GPR48 monoclonal antibody, R&D Systems, clone #852229, product number MAB7750","inhibition rate, colony formation of HCT116 cells, 10 µg/ml antibody",[1],15.4%
same,"inhibition rate, colony formation of P6C cells, 10 µg/ml antibody",[1],9.7%
same,"inhibition rate, colony formation of SW480 cells, 10 µg/ml antibody",[1],26.1%
same,titer (reciprocal dilution (1:x) of 1 mg/ml),[2],300
same,dilution factor (dilution factor),[3],100
